Reference: the MegaScale stability set (Tsuboyama et al. 2023)

B1: EEHEE_rd4_0469 (parent)
chain: ITIHVNGVTYHFDNPEEAEKFAQKMAKTYQLKMEIHNGEFHME
B2: HEEH_KT_rd6_3546 (parent)
chain: SEEDKEREHWERLNRDFELRVLDTTFIAHHAEEVIKLLRWLEK

Variants of: B1
Test: folding stability dG (cDNA display proteolysis); higher = more stable
Details: PBS, room temperature

Variant | folding stability dG [kcal/mol]
ITIHVNGVTYHFDNPEEAEKFAQKMAKTYQLSMEIHNGEFHME [K32S] | 1.39
ITIHVNGVTYHFDNPEEWEKFAQKMAKTYQLKMEIHNGEFHME [A18W] | 0.81
ITIHVNGVTYHFDNPEEAEKFAQKMAKTYQNKMEIHNGEFHME [L31N] | 1
ITIHVNGVTYHFDNPIEAEKFAQKMAKTYQLKMEIHNGEFHME [E16I] | 1.18
ITIHVNGVTYHFDNPEEAEKFAQKMAKTYQLKMEIHNCEFHME [G38C] | 2.21
IHIHVNGVTYHFDNPEEAEKFAQKMAKTYQLKMEIHNGEFHME [T2H] | 1.51
IIIHVNGVTYHFDNPEEAEKFAQKMAKTYQLKMEIHNGEFHME [T2I] | 1.24
ITIHVNFVTYHFDNPEEAEKFAQKMAKTYQLKMEIHNGEFHME [G7F] | 1.65
ITIHVNGVTYHFDNPEEAEKFWQKMAKTYQLKMEIHNGEFHME [A22W] | 0.941
ITIHVNGVTYHFDNPECAEKFAQKMAKTYQLKMEIHNGEFHME [E17C] | 1.81
ITIHDNGVTYHFDNPEEAEKFAQKMAKTYQLKMEIHNGEFHME [V5D] | 0.38
ITIHSNGVTYHFDNPEEAEKFAQKMAKTYQLKMEIHNGEFHME [V5S] | 0.42
ITIHVNGVTYHFDNPEEAEKFAQKMAKTYQLKMESHNGEFHME [I35S] | 0.764
ITIHVNGVTYHFDNPEEAEKFAQKMAKTYQLKMEYHNGEFHME [I35Y] | 1.24
ITIHVNGVTYHFDNPEEAEKFAQKMAKTYQLKMEIHNGEFHMW [E43W] | 1.82

Variants of: B2
Test: as above
Details: PBS, room temperature

Variant | folding stability dG [kcal/mol]
SEEDKEREHWERLNRDFELRVLDTTFIAHHAEEVIKLLRWLEW [K43W] | 2.03
SEEDKEREHWERLNRDFELRVLDTTFIAHHAEEVIKLLRWLEF [K43F] | 1.57
SEEDKEREHWERLNRDFELRVLDTTFIAHHAEEVIKLLRWLEY [K43Y] | 1.8
SEEDKEREHWERLNRDFELRVLDTTFIAHHAEEVIKLLRWLEL [K43L] | 1.36
SEEDKEREHWERLNRDFELRVLDTTFIAHHAEEVIKLLRWLEE [K43E] | 1.3
SEEDKEREHWERLNRDFELRVLDTTFIAHHAEEVIKLLRWLEN [K43N] | 1.3
SEEDKEREHWERLNRDFELRVLDTTFIAHHAEEVIKLLRWLES [K43S] | 1.2
SEEDKEREHWERLNRDFELRVLDTTFIAHHAEEVIKLLRWLEM [K43M] | 1.5
SEEDKEREHWERLNRDFELRVLDTTFIAHHAEEVIKLLRWLEH [K43H] | 1.17
SEEDKEREHWERLNRDFELRVLDTTFIAHHAEEVIKLLRWLEV [K43V] | 1.56
SEEDKEREHWERLNRDFELRVLDTTFIAHHAEEVIKLLRWLED [K43D] | 1.45
SEEDKEREHWERLNRDFELRVLDTTFIAHHAEEVIKLLRWLEP [K43P] | 0.967
SEEDKEREHWERLNRDFELRVLDTTFIAHHAEEVIKLLRWLEC [K43C] | 1.57
SEEDKEREHWERLNRDFELRVLDTTFIAHHAEEVIKLLRWLEA [K43A] | 1.27
SEEDKEREHWERLNRDFELRVLDTTFIAHHAEEVIKLLRWLEG [K43G] | 1.82
SEEDKEREHWERLNRDFELRVLDTTFIAHHAEEVIKLLRWLEI [K43I] | 1.38
SEEDKEREHWERLNRDFELRVLDTTFIAHHAEEVIKLLRWLER [K43R] | 1.65
SEEDKEREHWERLNRDFELRVLDTTFIAHHAEEVIKLLRWLET [K43T] | 1.22
SEEDKEREHWERLNRDFELRVLDTTFIAHHAEEVIKLLRWLEQ [K43Q] | 1.36
SEEDKEREHWERLNRDFELRVLDTTFIAHHAEEVIKLLIWLEK [R39I] | 1.77
SEEDKEREHWERLNRDFELRVLDTTFIAHHAEEVIKLLEWLEK [R39E] | 0.969
SEEDKEREHWERLNRDFELRVLDTTFIAHHAEEVIKLLGWLEK [R39G] | 0.742

Variant | folding stability dG [kcal/mol]
SEEDKEREHWERLNRDFELRVLDTTFIAHHAEEVIKLLYWLEK [R39Y] | 1.54
SEEDKEREHWERLNRDFELRVLDTTFIAHHAEEVIKLLTWLEK [R39T] | 1.37
SEEDKEREHWERLNRDFELRVLDTTFIAHHAEEVIKLLNWLEK [R39N] | 0.829
SEEDKEREHWERLNRDFELRVLDTTFIAHHAEEVIKLLFWLEK [R39F] | 1.7
SEEDKEREHWERLNRDFELRVLDTTFIAHHAEEVIKLLHWLEK [R39H] | 1.17
SEEDKEREHWERLNRDFELRVLDTTFIAHHAEEVIKLLMWLEK [R39M] | 1.21
SEEDKEREHWERLNRDFELRVLDTTFIAHHAEEVIKLLKWLEK [R39K] | 1.28
SEEDKEREHWERLNRDFELRVLDTTFIAHHAEEVIKLLPWLEK [R39P] | 0.359
SEEDKEREHWERLNRDFELRVLDTTFIAHHAEEVIKLLAWLEK [R39A] | 0.866
SEEDKEREHWERLNRDFELRVLDTTFIAHHAEEVIKLLSWLEK [R39S] | 1.01
SEEDKEREHWERLNRDFELRVLDTTFIAHHAEEVIKLLDWLEK [R39D] | 0.762
SEEDKEREHWERLNRDFELRVLDTTFIAHHAEEVIKLLWWLEK [R39W] | 1.55
SEEDKEREHWERLNRDFELRVLDTTFIAHHAEEVIKLLVWLEK [R39V] | 1.33
SEEDKEREHWERLNRDFELRVLDTTFIAHHAEEVIKLLQWLEK [R39Q] | 0.982
SEEDKEREHWERLNRDFELRVLDTTFIAHHAEEVIKLLLWLEK [R39L] | 1.59
SEEDKEREHWERLNRDFELRVLDTTFIAHHAEEVIKLLRWMEK [L41M] | 1.22
SEEDKEREHWERLNRDFELRVLDTTFIAHHAEEVIKLLRWTEK [L41T] | 0.442
SEEDKEREHWERLNRDFELRVLDTTFIAHHAEEVIKLLRWFEK [L41F] | 1.38
SEEDKEREHWERLNRDFELRVLDTTFIAHHAEEVIKLLRWGEK [L41G] | 0.088
SEEDKEREHWERLNRDFELRVLDTTFIAHHAEEVIKLLRWWEK [L41W] | 1.22
SEEDKEREHWERLNRDFELRVLDTTFIAHHAEEVIKLLRWCEK [L41C] | 1.83
SEEDKEREHWERLNRDFELRVLDTTFIAHHAEEVIKLLRWQEK [L41Q] | 0.519
